Target: MET receptor (endogenous, on EHMES-1 cells) (human (endogenous in EHMES-1)) (UniProt P08581)

MET receptor Tyr1234/1235 phosphorylation (cell-based enzyme-linked immunosorbent assay) in EHMES-1 cells against the concentration of aMD5-PEG11; bell-shaped profile: 120 nM
Substance: MET receptor (endogenous, on EHMES-1 cells) (from UniProt P08581 25-1390)
